Values of other authors, collected in article PMC9836085.

Experiments:
[1] = biological target: Sas6 (Drosophila melanogaster) (UniProt Q9VAC8)
[2] = biological target: Rab6 (Drosophila melanogaster) (UniProt O18334)
UniProt O18334, sequence (O18334 whole entry): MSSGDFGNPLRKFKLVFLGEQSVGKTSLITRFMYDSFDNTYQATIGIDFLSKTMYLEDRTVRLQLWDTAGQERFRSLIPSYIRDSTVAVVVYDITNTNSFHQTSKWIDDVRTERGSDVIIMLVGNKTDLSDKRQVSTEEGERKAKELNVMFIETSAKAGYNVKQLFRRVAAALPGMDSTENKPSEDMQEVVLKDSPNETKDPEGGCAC

UniProt Q9VAC8, sequence (Q9VAC8 whole entry): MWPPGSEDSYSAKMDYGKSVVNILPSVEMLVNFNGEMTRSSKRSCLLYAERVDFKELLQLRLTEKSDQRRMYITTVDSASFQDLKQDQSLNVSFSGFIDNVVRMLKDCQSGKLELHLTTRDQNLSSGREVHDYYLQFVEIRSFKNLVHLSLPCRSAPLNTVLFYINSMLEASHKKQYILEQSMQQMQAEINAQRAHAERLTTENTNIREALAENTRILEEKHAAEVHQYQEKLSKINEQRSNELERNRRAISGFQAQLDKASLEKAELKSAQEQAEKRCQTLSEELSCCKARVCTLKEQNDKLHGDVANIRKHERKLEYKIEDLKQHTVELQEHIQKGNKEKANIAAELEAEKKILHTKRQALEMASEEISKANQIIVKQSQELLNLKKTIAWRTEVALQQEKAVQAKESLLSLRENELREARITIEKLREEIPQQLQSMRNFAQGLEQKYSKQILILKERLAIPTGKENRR

- Kd [1]: 0.047 µM
- Kd [2]: 2.24 µM
Substance: Gorab (from UniProt Q8IQQ4)
